Assay results: the supplement of paper PMC9942255
Where “and” joins values, the source holds several entries; their conditions need not be identical. Equal values may be shown once.

Test system: Bacillus subtilis DB104 (SP-AmyQ fusion secretion)
Assay: AmyQ secretion efficiency, weighted average sort bin (1 = best secretion, 10 = worst) (bin number (weighted average, 1-10)); higher = lower secretion efficiency
Procedure, shortened: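 With fluorescein-starch as substrate, a B. subtilis DB104 library expressing mature AmyQ fused to designed signal peptides (integrated at amyE) was encapsulated at about 0.3 cells per ~65 nL alginate bead. After about 13 h at room temperature, beads were nile red stained, and occupied beads were sorted by large-particle flow cytometry into 10 equally populated bins by green/red fluorescence ratio. Illumina sequencing of the amplicons in each bin was used to calculate the secretion score, which is the read-frequency-weighted average bin number, normalised to beads per bin, with low-abundance sequences left out.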

Sequence	AmyQ secretion efficiency
MKKRKRRFLLVSFVLFFALSTGITGVQAAPA	2.95
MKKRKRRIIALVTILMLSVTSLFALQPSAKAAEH	2.06
MKKRKRRNFKRFIAAFLVLALMIDVLAKST	7.65
MKKRKRRNFKRFIAAFLVLALMILSLVPADVLAKST	2.47
MKKRKRRNFKRFIAAFLVLALMIRRVPARVLAKST	6.23
MKKRKRRNFKRFIAAFLVLALMISGVPADVLAKST	2.12
MKKRKRRNFKRFIAAFLVLALMISLVPADALAKST	1.92
MKKRKRRNFKRFIAAFLVLALMISLVPADCLAKST	3.04
MKKRKRRNFKRFIAAFLVLALMISLVPADFLAKST	4.42
MKKRKRRNFKRFIAAFLVLALMISLVPADGLAKST	2.45
MKKRKRRNFKRFIAAFLVLALMISLVPADILAKST	1.87
MKKRKRRNFKRFIAAFLVLALMISLVPADKLAKST	4.89
MKKRKRRNFKRFIAAFLVLALMISLVPADMLAKST	1.76
MKKRKRRNFKRFIAAFLVLALMISLVPADSLAKST	2.3
MKKRKRRNFKRFIAAFLVLALMISLVPADTLAKST	1.68
MKKRKRRNFKRFIAAFLVLALMISLVPADVLAAKR	5.17
MKKRKRRNFKRFIAAFLVLALMISLVPADVLAEED	3.75
MKKRKRRNFKRFIAAFLVLALMISLVPADVLAKRK	3.6
MKKRKRRNFKRFIAAFLVLALMISLVPADVLGKST	3.14
MKKRKRRNFKRFIAAFLVLALMISLVPADVLKKST	6.16
MKKRKRRNFKRFIAAFLVLALMISLVPDVLAKST	3.69
MKKRKRRNFKRQGTQYKGLALMISLVPADVLAKST	7.46
MKKRKRRVSALTPSTTLAITAKAKEL	6.69
MKKRKRRVVLVLSIAGIGGFSVHAASS	7.17
MKKRKVLLSALLLLLFAFEPSASGKKL	2.85

Sequence	AmyQ secretion efficiency
MKKRKVLMAFIICLSLILSVLAAPPSGAKAESV	1.28
MKKRKVLTGSVLSLGLLVSASPAFATSP	1.37
MKKRKVMLATALFLGLTPAGANAADL	4.31
MKKRLIAPKLLSAASLAFFAMSGSAQAAAY	3.27
MKKRLIAPMFSSLLSAASLAFFAMSGSAQAAAY	3.7
MKKRLIAPMLKRAASLAFFAMSGSAQAAAY	6.4
MKKRLIAPMLKRKKRRAFFAMSGSAQAAAY	7.88
MKKRLIAPMLKRRKSLAFFAMSGSAQAAAY	7.31
MKKRLIAPMLLIAAILAFFAMSGSAQAAAY	2.47
MKKRLIAPMLLSAASLAFFAALIFILLLTFMSGSAQAAAY	3.37
MKKRLIAPMLLSAASLAFFAEEEEDEAQAAAY	3.9
MKKRLIAPMLLSAASLAFFAEEESAQAAAY	2.27
MKKRLIAPMLLSAASLAFFAKRKSAQAAAY	7.88
MKKRLIAPMLLSAASLAFFAMAQAAAY	6.11
MKKRLIAPMLLSAASLAFFAMFIIGSTAQAAAY	4.67
MKKRLIAPMLLSAASLAFFAMSGSAQAAAE	2.56
MKKRLIAPMLLSAASLAFFAMSGSAQAAAR	4.69
MKKRLIAPMLLSAASLAFFAMSGSAQAAEE	2.23
MKKRLIAPMLLSAASLAFFAMSGSAQAARR	6.96
MKKRLIAPMLLSAASLAFFAMSGSAQAEED	2.35
MKKRLIAPMLLSAASLAFFAMSGSAQARKK	5.79
MKKRLIAPMLLSAASLAFFAMSGSAQCAAY	6
MKKRLIAPMLLSAASLAFFAMSGSAQDAAY	6.76
MKKRLIAPMLLSAASLAFFAMSGSAQEAAY	6.78
MKKRLIAPMLLSAASLAFFAMSGSAQFAAY	6.43

Sequence	AmyQ secretion efficiency
MKKRLIAPMLLSAASLAFFAMSGSAQGAAY	4.34
MKKRLIAPMLLSAASLAFFAMSGSAQHAAY	7.18
MKKRLIAPMLLSAASLAFFAMSGSAQIAAY	8.39
MKKRLIAPMLLSAASLAFFAMSGSAQKAAY	6.67
MKKRLIAPMLLSAASLAFFAMSGSAQLAAY	6.99
MKKRLIAPMLLSAASLAFFAMSGSAQMAAY	6.46
MKKRLIAPMLLSAASLAFFAMSGSAQNAAY	8.43
MKKRLIAPMLLSAASLAFFAMSGSAQPAAY	5.92
MKKRLIAPMLLSAASLAFFAMSGSAQQAAY	8.53
MKKRLIAPMLLSAASLAFFAMSGSAQRAAY	6.9
MKKRLIAPMLLSAASLAFFAMSGSAQSAAY	5.28
MKKRLIAPMLLSAASLAFFAMSGSAQTAAY	7.42
MKKRLIAPMLLSAASLAFFAMSGSAQVAAY	5.79
MKKRLIAPMLLSAASLAFFAMSGSAQWAAY	6.21
MKKRLIAPMLLSAASLAFFAMSGSAQYAAY	6.56
MKKRLIAPMLLSAASLAFFAMSGSCQAAAY	2.58
MKKRLIAPMLLSAASLAFFAMSGSDQAAAY	4.18
MKKRLIAPMLLSAASLAFFAMSGSEQAAAY	3.75
MKKRLIAPMLLSAASLAFFAMSGSFQAAAY	7.38
MKKRLIAPMLLSAASLAFFAMSGSGAQAAAY	3.78
MKKRLIAPMLLSAASLAFFAMSGSGQAAAY	5.16
MKKRLIAPMLLSAASLAFFAMSGSHQAAAY	5.04
MKKRLIAPMLLSAASLAFFAMSGSIQAAAY	6.12
MKKRLIAPMLLSAASLAFFAMSGSKQAAAY	3.82
MKKRLIAPMLLSAASLAFFAMSGSLQAAAY	5.33

Sequence	AmyQ secretion efficiency
MKKRLIAPMLLSAASLAFFAMSGSMQAAAY	5.75
MKKRLIAPMLLSAASLAFFAMSGSNQAAAY	3.88
MKKRLIAPMLLSAASLAFFAMSGSPQAAAY	5.7
MKKRLIAPMLLSAASLAFFAMSGSQQAAAY	4.52
MKKRLIAPMLLSAASLAFFAMSGSRQAAAY	6.03
MKKRLIAPMLLSAASLAFFAMSGSSGAAGPSPAAQAAAY	4.83
MKKRLIAPMLLSAASLAFFAMSGSSQAAAY	4.08
MKKRLIAPMLLSAASLAFFAMSGSSVTAGAQAAAY	6.18
MKKRLIAPMLLSAASLAFFAMSGSTQAAAY	3.66
MKKRLIAPMLLSAASLAFFAMSGSVQAAAY	4.49
MKKRLIAPMLLSAASLAFFAMSGSYQAAAY	6.45
MKKRLIAPMLLSAASLAFFAMVAVIAQAAAY	5.95
MKKRLIAPMLLSAASLAFFAQEGSAQAAAY	2.53
MKKRLIAPMLLSAASLAFFARRKRKKAQAAAY	7.44
MKKRLIAPMLLSAASLAFFATFMSGSAQAAAY	3.39
MKKRLIAPMLLSAASLAFMSGSAQAAAY	3.31
MKKRLIAPMSGYGASLAFFAMSGSAQAAAY	7.43
MKKRLIGFLVLVPALIEDEEELIEANKK	7.82
MKKRLIGFLVLVPALIEDGITLIEANKK	5.91
MKKRLIGFLVLVPALIKSGITLIEANKK	6.34
MKKRLIGFLVLVPALIMIEANKK	6.53
MKKRLIGFLVLVPALIMSGITLAEANKK	7.38
MKKRLIGFLVLVPALIMSGITLDEANKK	4.52
MKKRLIGFLVLVPALIMSGITLEEANKK	7.58
MKKRLIGFLVLVPALIMSGITLGEANKK	6.8

Sequence	AmyQ secretion efficiency
MKKRLIGFLVLVPALIMSGITLIEANDD	4.89
MKKRLIGFLVLVPALIMSGITLIEANKK	5.85 and 6.63 and 6.16
MKKRLIGFLVLVPALIMSGITLIEANPY	7.07
MKKRLIGFLVLVPALIMSGITLIEANSE	7.68
MKKRLIGFLVLVPALIMSGITLIEARKK	7.62
MKKRLIGFLVLVPALIMSGITLIECNKK	6.67
MKKRLIGFLVLVPALIMSGITLIEDNKK	7.79
MKKRLIGFLVLVPALIMSGITLIEINKK	7.02
MKKRLIGFLVLVPALIMSGITLIELNKK	6.99
MKKRLIGFLVLVPALIMSGITLIEMNKK	6.01
MKKRLIGFLVLVPALIMSGITLIENNKK	6.74
MKKRLIGFLVLVPALIMSGITLIEPNKK	7.44
MKKRLIGFLVLVPALIMSGITLIERNKK	6.81
MKKRLIGFLVLVPALIMSGITLIESNKK	5.98
MKKRLIGFLVLVPALIMSGITLIEWNKK	3.04
MKKRLIGFLVLVPALIMSGITLIEYNKK	9.98
MKKRLIGFLVLVPALIMSGITLKEANKK	6.33
MKKRLIGFLVLVPALIMSGITLLEANKK	6.63
MKKRLIGFLVLVPALIMSGITLMEANKK	7.17
MKKRLIGFLVLVPALIMSGITLQEANKK	7.31
MKKRLIGFLVLVPALIMSGITLREANKK	7.02
MKKRLIGFLVLVPALIMSGITLYEANKK	5.95
MKKRLILLSAASLAFFAMSGSAQAAAY	2.92
MKKRLIQVMIMFTLLLRKRRSADAADS	6.79
MKKRLIQVMIMFTLLLRRKRRRRADAADS	8.45
